Experiments:
human FcγRIIb [1] = molecular target: T1, human FcγRIIb (human, UniProt P31994 43-217, limits assumed); assay: SPR (Biacore), antibody captured on Protein L, human FcgR as analyte, pH 7.4, 25 C; amount normalised to captured antibody
T1 construct: also called hFcgRIIb; FcγIIB
T1 sequence: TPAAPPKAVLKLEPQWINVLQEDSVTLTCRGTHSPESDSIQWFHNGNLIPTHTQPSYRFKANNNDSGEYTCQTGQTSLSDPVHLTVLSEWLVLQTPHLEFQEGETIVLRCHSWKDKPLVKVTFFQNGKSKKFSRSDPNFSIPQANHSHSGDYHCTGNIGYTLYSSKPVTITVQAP
Experimental: (§1) Binding activity between the antibodies and human FcγRIa, FcγRIIa(H), FcγRIIa(R), FcγRIIb and FcγRIIIa(F) (hereinafter referred to as human FcγRs) was evaluated using the Biacore T100 or T200 (GE Healthcare). The antibodies being tested were captured by Protein L (ACTIGEN) that was immobilized in suitable amounts on the CM4 Sensor Chip (GE Healthcare) by amine coupling. Next, the diluted human FcγRs and a running buffer used as a blank were injected to allow interaction with the antibodies captured on the sensor chip. A buffer consisting of 20 mmol/L ACES, 150 mmol/L NaCl and 0.05% (w/v) Tween 20 (pH 7.4) was used for the running buffer, and this buffer was also used to dilute the human FcγRs. 10 mmol/L glycine-HCl (pH 1.5) was used to regenerate the sensor chip. All measurements were carried out at 25° C.
(§2) Binding activity to human FcγRs can be represented by the relative binding activity to human FcγRs. Antibody was captured by Protein L, and the amount of change in a sensorgram before and after the antibody was captured was defined as X1. Next, human FcγRs were allowed to interact with the antibody, and the value obtained by subtracting binding activity of human FcγRs represented as the amount of change in a sensorgram before and after allowing the running buffer to interact with antibody captured by Protein L (ΔA2) from the value obtained by multiplying by 1500 the value obtained by dividing the binding activity of human FcγRs represented as the amount of change in a sensorgram before and after that interaction (ΔA1) by the captured amount (X) of each antibody, was divided by the captured amount of each antibody (X) followed by multiplying by 1500 to obtain the binding activity of the human FcγRs (Y) (Equation 2).

human FcγRIIIa(F) = molecular target: T2, human FcγRIIIa(F) (human, UniProt P08637 17-208, limits assumed); assay: as above
T2 construct: also called hFcgRIIIa(F); allotype F158
T2 sequence (P08637 other isoform, or with tags, fused parts or gaps limits assumed): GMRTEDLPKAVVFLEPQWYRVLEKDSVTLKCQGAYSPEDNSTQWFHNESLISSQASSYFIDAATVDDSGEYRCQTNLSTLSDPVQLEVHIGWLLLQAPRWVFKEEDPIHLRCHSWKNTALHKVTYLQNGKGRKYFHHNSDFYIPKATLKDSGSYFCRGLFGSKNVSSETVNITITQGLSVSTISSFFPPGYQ
Experimental: as §1, §2

human FcRn = molecular target: T3, human FcRn (human); assay: SPR (Biacore), antibody captured by Protein L, human FcRn as analyte, pH 7.0
T3 construct: Soluble human FcRn complexed with β2-microglobulin; also called hFcRn; soluble human FcRn complexed with β2-microglobulin
T3 sequence (chain, as listed by the source limits assumed, chain 1 of 2): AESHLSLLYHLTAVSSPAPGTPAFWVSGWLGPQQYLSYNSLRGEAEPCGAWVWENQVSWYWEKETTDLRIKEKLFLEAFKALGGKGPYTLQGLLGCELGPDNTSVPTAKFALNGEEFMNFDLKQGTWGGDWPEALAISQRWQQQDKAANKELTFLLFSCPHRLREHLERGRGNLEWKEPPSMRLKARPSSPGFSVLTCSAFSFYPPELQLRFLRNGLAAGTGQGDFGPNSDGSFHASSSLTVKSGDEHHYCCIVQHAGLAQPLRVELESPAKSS
T3 sequence (P61769 21-119 limits assumed, chain 2 of 2): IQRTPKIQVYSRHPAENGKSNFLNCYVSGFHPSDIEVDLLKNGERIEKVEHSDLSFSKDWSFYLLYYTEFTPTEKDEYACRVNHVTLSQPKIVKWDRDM
Experimental: A kinetic analysis of binding between human FcRn and the aforementioned antibodies was carried out using the Biacore T100 or T200 (GE Healthcare). The antibodies being tested were captured on the CM4 Sensor Chip (GE Healthcare) on which a suitable amount of Protein L (ACTIGEN) was suitably immobilized by amine coupling. Next, diluted human FcRn and a running buffer used as a blank were injected to allow the human FcRn to interact with the antibody captured on the sensor chip. A buffer consisting of 50 mmol/L sodium phosphate, 150 mmol/L NaCl and 0.05% (w/v) Tween 20 (pH 7.0 or pH 7.4) was used for the running buffer, and each buffer was also used to dilute the human FcRn. 10 mmol/L glycine-HCl (pH 1.5) was used to regenerate the sensor chip. All measurements of binding were carried out at 25° C. The KD(M) of each antibody to human FcRn was calculated based on kinetics parameters, i.e., the association rate constant ka (1/Ms) and the dissociation rate constant kd (1/s) calculated from a sensorgram obtained by the measurement. The Biacore T100 or T200 Evaluation Software (GE Healthcare) was used to calculate each parameter.

human FcγRIIb [2] = molecular target: T4, human FcγRIIb (human, UniProt P31994 43-217, limits assumed); assay: ratio of this variant's SPR KD for FcγRIIaR to its KD for FcγRIIb
T4 construct: also called FcγIIB; hFcgRIIb
T4 sequence: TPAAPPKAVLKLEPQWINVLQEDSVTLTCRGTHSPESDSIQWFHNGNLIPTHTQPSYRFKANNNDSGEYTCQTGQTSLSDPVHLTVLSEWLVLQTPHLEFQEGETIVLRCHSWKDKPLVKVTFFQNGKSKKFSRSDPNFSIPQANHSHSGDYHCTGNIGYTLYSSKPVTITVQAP
Text: (§3) Furthermore, KD(IIaR)/KD(IIb) and KD(IIaH)/KD(IIb) in the table respectively represent the value obtained by dividing the KD value of each variant for FcγRIIaR by the KD value of each variant for FcγRIIb, and the value obtained by dividing the KD value of each variant for FcγRIIaH by the KD value of each variant for FcγRIIb.

human FcγRIIb [3] = molecular target: T4, human FcγRIIb; assay: ratio of this variant's SPR KD for FcγRIIaH to its KD for FcγRIIb
Text: as §3

human FcγRIIa type R [4] = molecular target: T5, human FcγRIIa type R (human, UniProt P12318 36-217); assay: SPR KD of this variant's stronger FcγRIIa allotype binding divided by that of parent IL6R-B3/IL6R-L
T5 construct: also called FcγRIIaR; FcγRIIa(R)
T5 chain: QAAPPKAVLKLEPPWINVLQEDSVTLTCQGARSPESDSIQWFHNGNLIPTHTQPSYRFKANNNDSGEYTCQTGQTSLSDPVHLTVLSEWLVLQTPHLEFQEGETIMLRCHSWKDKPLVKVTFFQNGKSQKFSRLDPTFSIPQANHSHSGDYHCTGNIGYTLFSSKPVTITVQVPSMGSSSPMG
Text: as §3

human FcγRIIa type R [5] = molecular target: T5, human FcγRIIa type R; assay: SPR (Biacore), captured antibody, FcγR as analyte, 25 C
Text: as §3

human FcγRIIb [6] = molecular target: T4, human FcγRIIb; assay: SPR KD for FcγRIIb of parent IL6R-B3/IL6R-L divided by that of this variant
Text: as §3

Binder	BINDING AMOUNT (RU) (human FcγRIIb [1])	BINDING AMOUNT (RU) (human FcγRIIIa(F))	KD (IIaR)/KD (IIb) (human FcγRIIb [2])	KD (IIaH)/KD (IIb) (human FcγRIIb [3])	KD value for the stronger of the FcγRIIaR- and FcγRIIaH-binding activities of the variant/that of the parent polypeptide (human FcγRIIa type R [4])	other results
antibody containing VH3-IgG1-F1324 for the heavy chain and L(WT)-CK for the light chain (antibody) heavy: QVQLQESGPGLVKPSETLSLTCAVSGHSISHDHAWSWVRQPPGEGLEWIGFISYSGITNYNPSLQGRVTISRDNSKNTLYLQMNSLRAEDTAVYYCARSLARTTAMDYWGEGTLVTVSSASTKGPSVFPLAPSSKSTSGGTAALGCLVKDYFPEPVTVSWNSGALTSGVHTFPAVLQSSGLYSLSSVVTVPSSSLGTQTYICNVNHKPSNTKVDKKVEPKSCDKTHTCPPCPAPEAAGGPSVFLFPPKPKDTLYISRTPEVTCVVVDVSHEDPEVKFNWYVDGVEVHNAKTKPREEQYNSTYRVVSVLTVLHQDWLNGKEYKCKVSNKALPAPIEKTISKAKGQPREPQVYTLPPSRDELTKNQVSLTCLVKGFYPSDIAVEWESNGQPENNYKTTPPVLDSDGSFFLYSKLTVDKSRWQQGNVFSCSVMHEALHYHVTQKSLSLSP light: not shown	3.85 RU	5.83 RU				
antibody containing VH3-IgG1-F1326 for the heavy chain and L(WT)-CK for the light chain (antibody) heavy: QVQLQESGPGLVKPSETLSLTCAVSGHSISHDHAWSWVRQPPGEGLEWIGFISYSGITNYNPSLQGRVTISRDNSKNTLYLQMNSLRAEDTAVYYCARSLARTTAMDYWGEGTLVTVSSASTKGPSVFPLAPSSKSTSGGTAALGCLVKDYFPEPVTVSWNSGALTSGVHTFPAVLQSSGLYSLSSVVTVPSSSLGTQTYICNVNHKPSNTKVDKKVEPKSCDKTHTCPPCPAPEAAGGPSVFLFPPKPKDVLYISRTPEVTCVVVDVSHEDPEVKFNWYVDGVEVHNAKTKPREEQYNSTYRVVSVLQPLHADWLNGKEYKCKVSNKALPAPIEKTISKAKGQPREPQVYTLPPSRDELTKNQVSLTCLVKGFYPSDIAVEWESNGQPENNYKTTPPVLDSDGSFFLYSKLTVDKSRWQQGNVFSCSVMHEALHYHVTQKSLSLSP light: not shown	5.46 RU	9.51 RU				
IgG1-F1369 (antibody, name in EU numbering, light chain L(WT)-CK; copies: 2 + 2) heavy: QVQLQESGPGLVKPSETLSLTCAVSGHSISHDHAWSWVRQPPGEGLEWIGFISYSGITNYNPSLQGRVTISRDNSKNTLYLQMNSLRAEDTAVYYCARSLARTTAMDYWGEGTLVTVSSASTKGPSVFPLAPSSKSTSGGTAALGCLVKDYFPEPVTVSWNSGALTSGVHTFPAVLQSSGLYSLSSVVTVPSSSLGTQTYICNVNHKPSNTKVDKKVEPKSCDKTHTCPPCPAPELRGGPKVFLFPPKPKDTLYITREPEVTCVVVDVSHEDPEVKFNWYVDGVEVHNAKTKPREEQYNSTYRVVSVLTVLHQDWLNGKEYKCKVSNKALPAPIEKTISKAKGQPREPQVYTLPPSRDELTKNQVSLTCLVKGFYPSDIAVEWESNGQPENNYKTTPPVLDSDGSFFLYSKLTVDKSRWQQGNVFSCSVMHEALHYHFTRKELSLSP light: not shown						Kd (human FcRn): 76 nM
IL6R-BP089/IL6R-L (antibody, human IgG1, copies: 2 + 2) heavy: QVQLQESGPGLVKPSETLSLTCAVSGHSISHDHAWSWVRQPPGEGLEWIGFISYSGITNYNPSLQGRVTISRDNSKNTLYLQMNSLRAEDTAVYYCARSLARTTAMDYWGEGTLVTVSSASTKGPSVFPLAPSSKSTSGGTAALGCLVKDYFPEPVTVSWNSGALTSGVHTFPAVLQSSGLYSLSSVVTVPSSSLGTQTYICNVNHKPSNTKVDKKVEPKSCDKTHTCPPCPAPEYLGGDSVFLFPPKPKDTLMISRTPEVTCVVVDVSHEDPEVKFNWYVDGVEVHNAKTKPREEQYNSTYRVVSVLTVLHQDWLNGKEYKCKVSNAALPKPIEKTISKAKGQPREPQVYTLPPSRDELTKNQVSLTCLVKGFYPSDIAVEWESNGQPENNYKTTPPVLDSDGSFFLYSKLTVDKSRWQQGNVFSCSVMHEALHNHYTQESLSLSP light: DIQMTQSPSSLSASVGDRVTITCRASQDISSYLNWYQQKPGKAPKLLIYYTSRLHSGVPSRFSGSGSGTDFTFTISSLQPEDIATYYCQQGNTLPYTFGQGTKVEIK			16.6	51.9	6.3	
IL6R-BP144/IL6R-L (antibody, human IgG1, copies: 2 + 2) heavy: QVQLQESGPGLVKPSETLSLTCAVSGHSISHDHAWSWVRQPPGEGLEWIGFISYSGITNYNPSLQGRVTISRDNSKNTLYLQMNSLRAEDTAVYYCARSLARTTAMDYWGEGTLVTVSSASTKGPSVFPLAPSSKSTSGGTAALGCLVKDYFPEPVTVSWNSGALTSGVHTFPAVLQSSGLYSLSSVVTVPSSSLGTQTYICNVNHKPSNTKVDKKVEPKSCDKTHTCPPCPAPELLGDDSVFLFPPKPKDTLMISRTPEVTCVVVDVSHEDPEVKFNWYVDGVEVHNAKTKPREEQYNSTYRVVSVLTVLHQDWLNGKEYKCKVSNAALPAPIEKTISKAKGQPREPQVYTLPPSRDELTKNQVSLTCLVKGFYPSDIAVEWESNGQPENNYKTTPPVLDSDGSFFLYSKLTVDKSRWQQGNVFSCSVMHEALHNHYTQESLSLSP light: DIQMTQSPSSLSASVGDRVTITCRASQDISSYLNWYQQKPGKAPKLLIYYTSRLHSGVPSRFSGSGSGTDFTFTISSLQPEDIATYYCQQGNTLPYTFGQGTKVEIK			8.7	45.8	6.9	Kd (human FcγRIIa type R [5]): 2900 nM; KD(IIb) of the parent polypeptide/KD(IIb) of the altered polypeptide (human FcγRIIb [6]): 5.9

Reference: patent US20140105889A1 (published 2014)
